T1: human FcγRIIaH extracellular domain, His-tagged (human, UniProt P12318 34-217)
T1 construct: also called human FcgRIIaH; FcγRIIa type H
T1 sequence: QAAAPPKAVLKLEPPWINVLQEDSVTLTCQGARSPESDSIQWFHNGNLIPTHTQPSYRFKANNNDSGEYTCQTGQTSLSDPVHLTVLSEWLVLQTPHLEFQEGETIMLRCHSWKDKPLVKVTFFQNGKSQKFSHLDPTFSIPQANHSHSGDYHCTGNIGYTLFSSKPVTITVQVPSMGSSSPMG

T2: human FcγRIIaR extracellular domain, His-tagged (human, UniProt P12318 34-217)
T2 construct: also called human FcgRIIaR; FcγRIIa type R
T2 chain: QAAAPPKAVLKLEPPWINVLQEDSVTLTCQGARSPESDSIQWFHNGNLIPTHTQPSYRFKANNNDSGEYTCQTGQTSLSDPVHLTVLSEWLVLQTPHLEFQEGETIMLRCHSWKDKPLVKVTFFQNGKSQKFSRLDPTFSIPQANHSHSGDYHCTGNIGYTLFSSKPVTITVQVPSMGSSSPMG

T3: cynomolgus monkey FcγRIIIaS extracellular domain with C-terminal His-tag (cynomolgus monkey, UniProt Q8SPW2 21-206 at identity 1.00))
T3 construct: also called cyno FcγRIIIaS; FcgRIIIaS
T3 chain: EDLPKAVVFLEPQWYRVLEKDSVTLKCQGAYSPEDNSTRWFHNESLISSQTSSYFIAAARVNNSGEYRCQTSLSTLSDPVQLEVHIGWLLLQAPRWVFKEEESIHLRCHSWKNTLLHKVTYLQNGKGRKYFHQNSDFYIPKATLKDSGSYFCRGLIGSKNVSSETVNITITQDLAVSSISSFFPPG


What was measured:
[1] = target: T4, human FcγRIIIaV extracellular domain, His-tagged (human, UniProt P08637 17-208); assay: SPR (Biacore), 25C, FcgR bound per antibody captured
T4 construct: also called human FcgRIIIaV

[2] = target: T1, human FcγRIIaH extracellular domain, …; assay: as above
[3] = target: T2, human FcγRIIaR extracellular domain, …; assay: as above
[4] = target: T3, cynomolgus monkey FcγRIIIaS …; assay: SPR; KD of SG1 / KD of variant
Method: The kinetic analysis of interactions between these antibodies and FcγR was carried out using BIACORE® T200 or BIACORE® 4000 (GE Healthcare). HBS-EP+ (GE Healthcare) was used as the running buffer, and the measurement temperature was set to 25° C. […] After the measurement, the antibody captured on the chip was washed off by allowing reaction with 10 mM glycine-HCl, pH1.5 and 25 mM NaOH so that the chip was regenerated and used repeatedly. The sensorgrams obtained as measurement results were analyzed by the 1:1 Langmuir binding model using the BIACORE® Evaluation Software to calculate the binding rate constant ka (L/mol/s) and dissociation rate constant kd (1/s), and the dissociation constant KD (mol/L) was calculated from these values. […] Regarding such interactions, KD values were calculated using the following 1:1 binding model described in BIACORE® T100 Software Handbook BR1006-48 Edition AE.

T4 sequence (P08637 17-208 F176V): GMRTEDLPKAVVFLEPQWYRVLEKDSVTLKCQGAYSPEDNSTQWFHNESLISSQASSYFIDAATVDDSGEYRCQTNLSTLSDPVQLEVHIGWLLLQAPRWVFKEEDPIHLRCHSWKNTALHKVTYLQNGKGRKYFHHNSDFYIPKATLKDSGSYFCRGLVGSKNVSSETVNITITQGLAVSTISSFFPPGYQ

| Binder | Binding to human FcgRs (parent B3 = 100) [1] | Binding to human FcgRs (parent B3 = 100) [2] | Binding to human FcgRs (parent B3 = 100) [3] | KD fold (SG1 = 1) [4] |
| --- | --- | --- | --- | --- |
| GpH7-B3 A327N / GpL16-k0 (antibody, human IgG1, kappa, also called B3 variant A327N) heavy: not shown light: DIVMTQSPLSLPVTPGEPASISCQASESLVHSNRNTYLHWYLQKPGQSPQLLIYKVSNRFSGVPDRFSGSGSGTDFTLKISRVEAEDVGVYYCSQNTHVPPTFGQGTKVEIERTVAAPSVFIFPPSDEQLKSGTASVVCLLNNFYPREAKVQWKVDNALQSGNSQESVTEQDSKDSTYSLSSTLTLSKADYEKHKVYACEVTHQGLSSPVTKSFNRGEC | 32 | 95 | 48 | – |
| GpH7-B3 A330K / GpL16-k0 (antibody, human IgG1, kappa, also called B3 variant A330K) heavy: not shown light: DIVMTQSPLSLPVTPGEPASISCQASESLVHSNRNTYLHWYLQKPGQSPQLLIYKVSNRFSGVPDRFSGSGSGTDFTLKISRVEAEDVGVYYCSQNTHVPPTFGQGTKVEIERTVAAPSVFIFPPSDEQLKSGTASVVCLLNNFYPREAKVQWKVDNALQSGNSQESVTEQDSKDSTYSLSSTLTLSKADYEKHKVYACEVTHQGLSSPVTKSFNRGEC | 86 | 121 | 127 | – |
| GpH7-B3 A330R / GpL16-k0 (antibody, human IgG1, kappa, also called B3 variant A330R) heavy: not shown light: DIVMTQSPLSLPVTPGEPASISCQASESLVHSNRNTYLHWYLQKPGQSPQLLIYKVSNRFSGVPDRFSGSGSGTDFTLKISRVEAEDVGVYYCSQNTHVPPTFGQGTKVEIERTVAAPSVFIFPPSDEQLKSGTASVVCLLNNFYPREAKVQWKVDNALQSGNSQESVTEQDSKDSTYSLSSTLTLSKADYEKHKVYACEVTHQGLSSPVTKSFNRGEC | 73 | 116 | 123 | – |
| GpH7-B3 P271E / GpL16-k0 (antibody, human IgG1, kappa, also called B3 variant P271E) heavy: not shown light: DIVMTQSPLSLPVTPGEPASISCQASESLVHSNRNTYLHWYLQKPGQSPQLLIYKVSNRFSGVPDRFSGSGSGTDFTLKISRVEAEDVGVYYCSQNTHVPPTFGQGTKVEIERTVAAPSVFIFPPSDEQLKSGTASVVCLLNNFYPREAKVQWKVDNALQSGNSQESVTEQDSKDSTYSLSSTLTLSKADYEKHKVYACEVTHQGLSSPVTKSFNRGEC | 87 | 90 | 51 | – |
| M103205H795-MY142 (heavy chain) with M103202L889-SK1 (light chain) (antibody, human IgG1, kappa, name in EU numbering, Substitutions introduced into M103205H795-SG1; positions in EU numbering) heavy: QVTLKESGPVLVKPTETLTLTCTVSGIDLSHDDISWVRQAPGKGLEWVGIISYAGSTYYASWAKGRLTISKDTSKNQVVLTMTNMDPVDTATYYCARGVPAYSHGGDLWGQGTLVTVSSASTKGPSVFPLAPSSKSTSGGTAALGCLVKDYFPEPVTVSWNSGALTSGVHTFPAVLQSSGLYSLSSVVTVPSSSLGTQTYICNVNHKPSNTKVDKKVEPKSCDKTHTCPPCPAPELLEGPSVFLFPPKPKDTLMISRTPEVTCVVVDVSEEDPEVKFNWYVDGVEVHNAKTKPREEQYNSTYRVVSVLTVLHQDWLNGKEYKCKVSNKALPAPIEKTISKAKGQPREPQVYTLPPSREEMTKNQVSLTCLVKGFYPSDIAVEWESNGQPENNYKTTPMVLDSDGSFFLYSKLTVDKSRWQQGNVFSCSVMHEALHNHYTQKSLSLSP light: DIVMTQSPATLSLSPGERATLSCTSSQSVYHANWLSWFQQKPGQPPKLLIYWASTLAYGVPSRFSGSGSGTDFTLTISSLQPEDAATYYCAGGYGGGRYAFGQGTKVEIKRTVAAPSVFIFPPSDEQLKSGTASVVCLLNNFYPREAKVQWKVDNALQSGNSQESVTEQDSKDSTYSLSSTLTLSKADYEKHKVYACEVTHQGLSSPVTKSFNRGEC | – | – | – | 2.57 fold |
| M103205H795-MY278 (heavy chain) with M103202L889-SK1 (light chain) (antibody, human IgG1, kappa, name in EU numbering, Substitutions introduced into M103205H795-SG1; positions in EU numbering) heavy: QVTLKESGPVLVKPTETLTLTCTVSGIDLSHDDISWVRQAPGKGLEWVGIISYAGSTYYASWAKGRLTISKDTSKNQVVLTMTNMDPVDTATYYCARGVPAYSHGGDLWGQGTLVTVSSASTKGPSVFPLAPSSKSTSGGTAALGCLVKDYFPEPVTVSWNSGALTSGVHTFPAVLQSSGLYSLSSVVTVPSSSLGTQTYICNVNHKPSNTKVDKKVEPKSCDKTHTCPPCPAPELLMGPSVFLFPPKPKDTLMISRTPEVTCVVVDVSDEDPEVKFNWYVDGVEVHNAKTKPREELYNSTYRVVSVLTVLHQDWLNGKEYKCKVSNKALPKPIEKTISKAKGQPREPQVYTLPPSREEMTKNQVSLTCLVKGFYPSDIAVEWESNGQPENNYKTTPPVLDSDGSFFLYSKLTVDKSRWQQGNVFSCSVMHEALHNHYTQKSLSLSP light: DIVMTQSPATLSLSPGERATLSCTSSQSVYHANWLSWFQQKPGQPPKLLIYWASTLAYGVPSRFSGSGSGTDFTLTISSLQPEDAATYYCAGGYGGGRYAFGQGTKVEIKRTVAAPSVFIFPPSDEQLKSGTASVVCLLNNFYPREAKVQWKVDNALQSGNSQESVTEQDSKDSTYSLSSTLTLSKADYEKHKVYACEVTHQGLSSPVTKSFNRGEC | – | – | – | 0.49 fold |
| M103205H795-MY279 (heavy chain) with M103202L889-SK1 (light chain) (antibody, human IgG1, kappa, name in EU numbering, Substitutions introduced into M103205H795-SG1; positions in EU numbering) heavy: QVTLKESGPVLVKPTETLTLTCTVSGIDLSHDDISWVRQAPGKGLEWVGIISYAGSTYYASWAKGRLTISKDTSKNQVVLTMTNMDPVDTATYYCARGVPAYSHGGDLWGQGTLVTVSSASTKGPSVFPLAPSSKSTSGGTAALGCLVKDYFPEPVTVSWNSGALTSGVHTFPAVLQSSGLYSLSSVVTVPSSSLGTQTYICNVNHKPSNTKVDKKVEPKSCDKTHTCPPCPAPELLHGPSVFLFPPKPKDTLMISRTPEVTCVVVDVSDEDPEVKFNWYVDGVEVHNAKTKPREELYNSTYRVVSVLTVLHQDWLNGKEYKCKVSNKALPKPIEKTISKAKGQPREPQVYTLPPSREEMTKNQVSLTCLVKGFYPSDIAVEWESNGQPENNYKTTPPVLDSDGSFFLYSKLTVDKSRWQQGNVFSCSVMHEALHNHYTQKSLSLSP light: DIVMTQSPATLSLSPGERATLSCTSSQSVYHANWLSWFQQKPGQPPKLLIYWASTLAYGVPSRFSGSGSGTDFTLTISSLQPEDAATYYCAGGYGGGRYAFGQGTKVEIKRTVAAPSVFIFPPSDEQLKSGTASVVCLLNNFYPREAKVQWKVDNALQSGNSQESVTEQDSKDSTYSLSSTLTLSKADYEKHKVYACEVTHQGLSSPVTKSFNRGEC | – | – | – | 0.15 fold |
| M103205H795-MY292 (heavy chain) with M103202L889-SK1 (light chain) (antibody, human IgG1, kappa, name in EU numbering, Substitutions introduced into M103205H795-SG1; positions in EU numbering) heavy: QVTLKESGPVLVKPTETLTLTCTVSGIDLSHDDISWVRQAPGKGLEWVGIISYAGSTYYASWAKGRLTISKDTSKNQVVLTMTNMDPVDTATYYCARGVPAYSHGGDLWGQGTLVTVSSASTKGPSVFPLAPSSKSTSGGTAALGCLVKDYFPEPVTVSWNSGALTSGVHTFPAVLQSSGLYSLSSVVTVPSSSLGTQTYICNVNHKPSNTKVDKKVEPKSCDKTHTCPPCPAPELLGYPSVFLFPPKPKDTLMISRTPEVTCVVVDVSDEDPEVKFNWYVDGVEVHNAKTKPREELYNSTYRVVSVLTVLHQDWLNGKEYKCKVSNKALPKPIEKTISKAKGQPREPQVYTLPPSREEMTKNQVSLTCLVKGFYPSDIAVEWESNGQPENNYKTTPMVLDSDGSFFLYSKLTVDKSRWQQGNVFSCSVMHEALHNHYTQKSLSLSP light: DIVMTQSPATLSLSPGERATLSCTSSQSVYHANWLSWFQQKPGQPPKLLIYWASTLAYGVPSRFSGSGSGTDFTLTISSLQPEDAATYYCAGGYGGGRYAFGQGTKVEIKRTVAAPSVFIFPPSDEQLKSGTASVVCLLNNFYPREAKVQWKVDNALQSGNSQESVTEQDSKDSTYSLSSTLTLSKADYEKHKVYACEVTHQGLSSPVTKSFNRGEC | – | – | – | 0.09 fold |
| M103205H795-MY293 (heavy chain) with M103202L889-SK1 (light chain) (antibody, human IgG1, kappa, name in EU numbering, Substitutions introduced into M103205H795-SG1; positions in EU numbering) heavy: QVTLKESGPVLVKPTETLTLTCTVSGIDLSHDDISWVRQAPGKGLEWVGIISYAGSTYYASWAKGRLTISKDTSKNQVVLTMTNMDPVDTATYYCARGVPAYSHGGDLWGQGTLVTVSSASTKGPSVFPLAPSSKSTSGGTAALGCLVKDYFPEPVTVSWNSGALTSGVHTFPAVLQSSGLYSLSSVVTVPSSSLGTQTYICNVNHKPSNTKVDKKVEPKSCDKTHTCPPCPAPELLGYPSVFLFPPKPKDTLMISRTPEVTCVVVDVSEEDPEVKFNWYVDGVEVHNAKTKPREELYNSTYRVVSVLTVLHQDWLNGKEYKCKVSNKALPKPIEKTISKAKGQPREPQVYTLPPSREEMTKNQVSLTCLVKGFYPSDIAVEWESNGQPENNYKTTPKVLDSDGSFFLYSKLTVDKSRWQQGNVFSCSVMHEALHNHYTQKSLSLSP light: DIVMTQSPATLSLSPGERATLSCTSSQSVYHANWLSWFQQKPGQPPKLLIYWASTLAYGVPSRFSGSGSGTDFTLTISSLQPEDAATYYCAGGYGGGRYAFGQGTKVEIKRTVAAPSVFIFPPSDEQLKSGTASVVCLLNNFYPREAKVQWKVDNALQSGNSQESVTEQDSKDSTYSLSSTLTLSKADYEKHKVYACEVTHQGLSSPVTKSFNRGEC | – | – | – | 0.09 fold |

— US20250076311A1 (Chugai, published 2025)
